Experimental data: article PMC9942873
Read-outs that look alike come from different tables or passages of the source.

Legend:
[1] = biological target: Pfs48/45 in its native configuration on the female gamete surface membrane (Plasmodium falciparum NF54 (endogenous in gametes))
[2] = biological target: Pfs48/45 in its native configuration on the female gamete surface membrane (Plasmodium falciparum NF54 (endogenous in gametes)); remark: listed apart in the source
[3] = biological target: Pfs48/45 6C.mAgE1 (K416N; C terminal 6x HIS tag) (Plasmodium falciparum); test: BLI
[4] = biological target: Pfs48/45 6C.mAgE1 (S322N; C terminal 6x HIS tag) (Plasmodium falciparum); test: BLI
[5] = biological target: Pfs48/45 6C.mAgE1 (D320H; C terminal 6x HIS tag) (Plasmodium falciparum); test: BLI
[6] = biological target: Pfs48/45 6C.mAgE1 (L314I; C terminal 6x HIS tag) (Plasmodium falciparum); test: BLI

B1: RUPA-50 (hIgG1) (antibody, V domains shown)
VH: QVHLVESGGGVVQPGRSLRLSCAASGFTFRSYGMHWVRRVPGKGLEWVATISYDETFKDYPDSVKGRFTISRDNSKNTLFLQMNSLRPADTAVYYCAKDRAHSMHYFEYWGRGTLVTVSS
VL: SYELTQPPSVSVSPGQTARLTCSGDALPKKFAYWYQLKSGQAPVLVIYEDSKRPSGIPERFSGSSSGTTATLTISGAQVEDEADYYCYSRDGSGDQKNIFGGGTKLTVL
other [1]: > 80 % TRA

B2: RUPA-47 (Fab) (Fab, V domains shown)
VH: QVQLVQSGAEVKKPGASVKLSCTASGYTFTNFGITWVRQAPGQGLEWMAWISVYSGDTDYAQRFQGRVTMTTDTSTRTAYMEMRSLSFDDTAVYYCVRGGRDSPILGGYWGQGTLVTVSS
VL: EIVLTQSPGTLSLSPGERVTLSCRASQSVRSMYLAWYQQKPGQAPRLLIHGASIRATGIPDRFSGSGSGTDFTLTISRLEREDFAVYYCHQYGSSPLTFGGGTKVESK
other [2]: 100 % TRA

B3: RUPA-160 (hIgG1) (antibody, V domains shown)
VH: QVQLVQSGAEVKKPGASVKASCKASGYTFDNFDIIWARQATGQGLEWMGWMNPNTGKKGYAQNLKDRVTMTRDSSISTAYLELSSLRSEDTAVYYCVRAVGSYYGSGGWFDPWGQGTLVTVSS
VL: QSVLTQPPSASGTPGQRVTIACSGSSSNIGGNNVKWYQQLPGTAPKLVIYNNDERPPGVPDRVSGSKSGTSASLAISGVQSEDEADYYCATWDDSMKREVFGGGTKLTVL
other [1]: 80 % TRA

B4: RUPA-29 (hIgG1) (antibody, V domains shown)
VH: QVHLVESGGGVVQPGRSLRLSCAASGFTFRSYGMHWVRLAPGKGLEWVTAIWYDGSKKHFADSVKGRFTISRDNSKNTLYLQMSSLRVEDTAVYYCARDFAHGAFYPVDWGRGTLVTVSS
VL: SYELTQPPSVSVSPGQTARITCSGDALPKKHAYWYQQKSGQAPVLVIYDDSKRPSGIPERFSGSSSGTMATLSISGAQVEDEAAYYCYSSDTSANYWVFGGGTKLTVL
other [1]: > 80 % TRA

B5: RUPA-29 (Fab) (Fab, V domains shown)
VH: QVHLVESGGGVVQPGRSLRLSCAASGFTFRSYGMHWVRLAPGKGLEWVTAIWYDGSKKHFADSVKGRFTISRDNSKNTLYLQMSSLRVEDTAVYYCARDFAHGAFYPVDWGRGTLVTVSS
VL: SYELTQPPSVSVSPGQTARITCSGDALPKKHAYWYQQKSGQAPVLVIYDDSKRPSGIPERFSGSSSGTMATLSISGAQVEDEAAYYCYSSDTSANYWVFGGGTKLTVL
Kd [3]: 109 nM

B6: RUPA-44 (Fab) (Fab, V domains shown)
VH: QLQLQESGPGLVKPSETLSLTCTVSGGSISRSPYYWGWIRQPPGKGLEWFGSIYNNGSTYYNPPLKSRLTISVDTSKNQFSLKLSSVTAADTAVYYCARHGGSTGMKVVVIAPPDYWGQGTLVTVSS
VL: DIQMTQSPATLSASVGDRVTITCRASQSISSWLAWYQQKPGEAPKLLIYKASSLQSGVPSRFSGSGSGTKFSLTISSLQPDDFATFYCQQYHSYPYTFGQGTKLEIK
Kd [3]: < 20 nM | Kd [4]: < 20 nM | Kd [5]: < 20 nM | Kd [6]: < 20 nM

B7: RUPA-117 (Fab) (Fab, V domains shown)
VH: QLQLQESGPGLVKPSETLSLTCTVSGGSISRSPYYWGWIRQPPGKGLEWFGSVYNNGSTYYNPSLKSRVTISVDTSKNQFSLKLSSVTAADTALYYCARHGGSTGMKVVVIAPPDYWGQGTLVTVSS
VL: DIQMTQSPATLSASVGDRVTITCRASQSISIWLAWYQQKPGEAPKLLIYKASSLQSGVPSRFSGSASGTKFSLTISSLQPDDFATFYCQQYHSYPYTFGQGTKLEIK
Kd [3]: < 20 nM | Kd [4]: < 20 nM | Kd [5]: < 20 nM | Kd [6]: < 20 nM

B8: RUPA-54 (hIgG1) (antibody, V domains shown)
VH: QVQLVESGGGVVQPGRSLRLSCTASGFTFRSYGIHWVRQAPGKGLQWVAFISYDGRNKYYADSVKGRFTISRDNSKNTLYLQMSGLRADDTAVYYCAKDSDNDCTATSCYTVSWGQGTLVTVSS
VL: SYELTQPPSVSVSPGQTARITCSGDALPKKYAYWYQQKSGQAPVLVIYEDKKRPSGIPERFSGSSSGTMATLTISGAQVEDEADYYCYSTDSRTDHGGIFGGGTKLTVL
other [1]: > 80 % TRA

B9: RUPA-100 (hIgG1) (antibody, V domains shown)
VH: QVQLVESGGGVVQPGRSLRLSCAASGFSFSHYGMHWVRQAPGKGLEWVAVISYDGNYKYYGDSVKGRFTISRDNFKNTLYLQMNSLRPEDTAVYYCAKGKAHSCVSTSCYTDFWGQGTLVTVPS
VL: SYELTQPPSVSVSPGQTARITCSGDALPKKYAYWYQQKSGQAPVLVIYEDSKRPSGIPERFSGSSSGTMATLTISGAQVEDEGDYYCYSTDSSYNHRGVFGGGTKLTVL
other [1]: > 80 % TRA
